Positions count from the first letter of the chain named.

Assay [1] is described as follows: Microtitre plate assay: biotinylated proteins binding to immobilized dermatan sulphate. Further details: species or system porcine. Particulars: biotinylated proteins 0-10 pmol/well. The source says: (§1) The heparin/HS/DS-binding activities of the FHCCP6-8(H384) and FHCCP6-8(Y384) variants (using biotinylated-FHCCP6-8 constructs), and in some cases full-length Factor H (detected with an antibody), were compared using an assay where the glycosaminoglycans (GAGs) were immobilized on allylamine-coated EpranEx plates (Mahoney et al (2004) Anal. Biochem. 330, 123-129), kindly supplied by Plasso Technology Ltd., Sheffield, UK. Previously, we have shown that heparin/HS can bind non-covalently to surfaces plasma polymerized with allylamine in such a way that these GAGs can still associate with a wide-range of proteins (Mahoney et al. (2005) J. Biol. Chem. 280, 27044-27055; Mahoney et al. (2004) ibid).
(§2) The following GAG preparations were analyzed: unfractionated heparins corresponding to the 2nd, 4th and 5th International Standards (denoted here as 2IS, 4IS and 5IS, respectively (Mulloy et al. (2000) Thromb. Haemost. 52, 148-153)); enoxaparin, dalteparin and LMr heparin from Sigma (Cat. No. H3400); selectively desulfated heparins prepared from 2IS heparin as described in Mulloy et al. (1994) Carbohydr. […]
In the case of the biotinylated FHCCP6-8(H384) and FHCCP6-8(Y384) constructs, bound material was detected by adding 200 μl/well of a 1:10,000 dilution of ExtrAvidin alkaline phosphatase (Sigma, Cat. No. E-2636) for 30 minutes. […]

Assay [2] in a line: Microtitre plate assay: biotinylated proteins binding to selectively desulphated 2IS heparin.
From the text: as §1, §2
In the case of the biotinylated FHCCP6-8(H384) and FHCCP6-8(Y384) constructs, bound material was detected by adding 200 μl/well of a 1:10,000 dilution of ExtrAvidin alkaline phosphatase (Sigma, Cat. No. E-2636) for 30 minutes. […] For the full-length protein, the level of binding (to 4IS, HSI and HSII) was determined by incubation of the plates for 30 min with MRC OX23 (a monoclonal antibody against factor H (Sim et al. (1983) Biosci. Rep. 3, 1119-1131; 1 μg/well) followed by a 1:1000 dilution of alkaline phosphatase-conjugated goat anti-mouse IgG (Sigma, Cat. No. A-3438) for another 30 minutes. The plates were then developed for 10 min as described above. The absorbance values at 405 nm were determined and corrected against blank wells (i.e., those that contained no GAGs).

Assay [3] can be described thus: Biotinylated bovine HS plate assay. Type of assay: binding. Particulars: proteins immobilised at 1 μg/well. The protocol:
The HS binding properties of FHCCP6-8(H384), FHCCP6-8(Y384) and full length Factor H were further tested using biotinylated bovine kidney heparan sulphate (Sigma) where the proteins were coated onto the wells of a Maxisorp microtitre plate (NUNC) at 1 μg/well in PBS (Oxoid; 137 mM NaCl, 2.6 mM KCl, 8.2 mM Na2HPO4, 1.5 mM KH2PO4, pH 7.3) overnight at room temperature. Link_TSG6 (denoted as L-TSG-6 in FIG. 9), a known HS-binding domain (see Mahoney et al. (2005) J. Biol. Chem. 280, 27044-27055) was immobilised at 1 μg/well as a positive control. Plates were blocked the next morning with 1% (w/v) BSA (Sigma, Cat. No. A-4503) in standard assay buffer (20 mM HEPES, 130 mM NaCl, 0.05% (v/v) Tween-20, pH 7.3) for 90 minutes at 37° C. The standard assay buffer was used for all subsequent incubations, dilutions and washes at room temperature. The biotinylated HS was incubated at various concentrations with the immobilised proteins for 4 hours. Bound material was detected by adding 200 μl/well of a 1:10,000 dilution of ExtrAvidin alkaline phosphatase (Sigma, Cat. No. E-2636) for 30 minutes. Plates were then developed with 200 μl/well of 1 mg/ml disodium p-nitrophenylphosphate (pNPP; Sigma) in 0.05 M Tris-HCl, 0.1 M NaCl, pH9.3, and developed for 40 minutes; the absorbance at 405 nm was measured and the signal from blank wells subtracted.

B1: FHCCP6-8(H384): recombinant protein of Factor H CCPs 6-8, H384 allotype, with N-terminal non-authentic glycine (SEQ ID NO: 1) (protein, listed as Homo sapiens)
chain: MGTLKPCDYPDIKHGGLYHENMRRPYFPVAVGKYYSYYCDEHFETPSGSYWDHIHCTQDGWSPAVPCLRKCYFPYLENGYNQNHGRKFVQGKSIDVACHPGYALPKAQTTVTCMENGWSPTPRCIRVKTCSKSSIDIENGFISESQYTYALKEKAKYQCKLGYVTADGETSGSITCGKDGWSAQPTCI
modifications: VARIANT (1)...(188) Protein sequence of the FHCCP6-8 (H384) construct
For the molecule B1, in assay [1], the “interaction with DS” value is listed as “interact with DS, albeit to a lesser degree than heparin”. In addition, the “effect of removal of 2-O- or N-sulfate on binding” value in assay [2] (2-O-deS or N-deS vs unmodified 2IS) is “large reduction”. Besides, the “interaction with biotinylated bovine kidney HS” value in assay [3] is on record as “interact”.

B2: FHCCP6-8(Y384): recombinant Factor H CCPs 6-8, Y384 variant obtained by site-directed mutagenesis (SEQ ID NO: 3) (protein, listed as Homo sapiens)
chain: B1 chain with H84Y
modifications: VARIANT (1)...(188) FHCCP6-8 (Y384 allotype of mature Factor H)
As for B2, the “interaction with DS” value in assay [1] is “interact with DS, albeit to a lesser degree than heparin”. In assay [2], the “binding to 6-O-deS and N-deS/re-N-Ac preparations versus parental 2IS” value was “indistinguishable”. In addition, the “effect of removal of 2-O-, 2,6-O- or N-sulfates on binding” value in assay [2] (vs unmodified 2IS) was “small effect”. Also, the “interaction with biotinylated bovine kidney HS” value in assay [3] is given as “interact”.

Source of the values: US7829301B2, “Screening assays for binding antagonists of the AMD-associated variant of factor H (H384)” (The University of Manchester, priority 2006, dated 2010).
